PMC6179307 (2018)

B1: RPT-6::VC155 [C. elegans] / ELT-2::VN173 [C. elegans] (parent complex)
chain 1: MAPPASTASSADPSKPTAQKLTEESDEKTLRKYFSTKVDDAQQKVADKSQNVRRLQAQRNELNTKVRMLKEELQQLHEQGSYVGEVSKAMDKKKVLVKVHPEGKYVVDVDKSIDINSLNTGARVALRADSYALHKLLPNKVDPLVSLMMVEKVPDSTYEMVGGLDKQIKEIKEVIELPVKHPELFDALGIAQPKGVLLFGPPGTGKTLLARAVAHHTECTFIRVSGSELVQKFIGEGARMVRELFVMAREHAPSIIFMDEIDSIGSSRVEGSSGGDSEVQRTMLELLNQLDGFEATKNIKVIMATNRIDILDPALLRPGRIDRKIEFPAPDEKARADILKIHSRKMNLMRGINMAKIAEQIPGASGAEVKSVCTEAGMFALRERRIHVTQEDFEMAVGKVMQKDSEKNMSIKKLWK
chain 2: MDNNYNDNVNGWAEMEPSQPMGGLRLPTQNMDPPEQNNESQLSELPRMKIDNDYASPIERQSVITSGTNNYEPKVETVTSFFHTGIDYSNFGMLDQTTMQPFYPLYSGIPVNTLGTFSGYTNSIYDKPSLYDPSIPTINIPSTYPTVAPTYECVKCSQSCGAGMKAVNGGMMCVNCSTPKTTYSPPVAYSTSLGQPPILEIPSEQPTAKIAKQSSKKSSSSNRGSNGSASRRQGLVCSNCNGTNTTLWRRNAEGDPVCNACGLYFKLHHIPRPTSMKKEGALQTRKRKSKSGDSSTPSTSRARERKFERASSSTEKAQRSSNRRAGSAKADRELSTAAVAAATATYVSHADLYPVSSAAVTLPDQTYSNYYQWNTAATAGLMMVPNDQNYVYAATNYQTGLRPADNIQVHVMPVQDDETKAAARDLEAVDGDS

Variants of: B1
Assay: bimolecular fluorescence complementation (BiFC) in vivo, quantified with Copas Biosort; three independent experiments combined, minimum of 399 animals in each case; fluorescence observed twelve hours after heat shock; parent: 750; read off a plot

response [Fluorescence/TOF] | Variant
~390 | chain 1 K206R
